Test results as given in US20240209070A1, “COTH3 BINDING AGENTS AND USES THEREOF” (priority 2021, published 2024).

Legend:
[1] = biological target: Rhizomucor (Rhizomucor (species not given)); assay: flow cytometry on fixed Rhizomucor spores; blank 'Hu 2nd Only' median 257.20, mean 272.52
[2] = biological target: Cunninghamella bertholletiae (Cunninghamella bertholletiae); assay: flow cytometry on fixed Cunninghamella bertholletiae spores; blank 'Hu 2nd Only' median 241.78, mean 250.81
[3] = biological target: Mucor circinelloides (Mucor circinelloides); assay: flow cytometry on fixed Mucor circinelloides spores; blank 'Hu 2nd Only' median 990.21, mean 1062.19
[4] = biological target: Rhizopus delemar (Rhizopus delemar); assay: flow cytometry on fixed Rhizopus delemar spores; blank 'Hu 2nd Only' median 565.83, mean 592.76
Chain of Rhizopus delemar (Rhizopus delemar) (I1CFE1 18-579): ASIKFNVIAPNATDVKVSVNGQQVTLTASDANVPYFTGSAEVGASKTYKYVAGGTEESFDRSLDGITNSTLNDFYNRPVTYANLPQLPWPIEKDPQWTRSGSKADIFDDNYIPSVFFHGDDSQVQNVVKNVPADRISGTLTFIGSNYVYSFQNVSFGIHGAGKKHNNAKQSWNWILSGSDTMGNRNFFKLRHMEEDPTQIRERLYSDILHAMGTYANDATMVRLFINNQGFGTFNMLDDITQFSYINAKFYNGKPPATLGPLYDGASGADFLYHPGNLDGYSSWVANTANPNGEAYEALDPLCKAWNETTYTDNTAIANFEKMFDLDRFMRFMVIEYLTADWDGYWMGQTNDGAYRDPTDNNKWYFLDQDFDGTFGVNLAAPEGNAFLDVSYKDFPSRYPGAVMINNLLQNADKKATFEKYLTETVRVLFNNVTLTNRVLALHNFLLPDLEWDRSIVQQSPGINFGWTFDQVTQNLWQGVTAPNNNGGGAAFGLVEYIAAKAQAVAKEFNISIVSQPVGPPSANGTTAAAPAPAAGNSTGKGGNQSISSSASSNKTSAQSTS

[5] = biological target: Lichtheimia corymbifera (Lichtheimia corymbifera); assay: flow cytometry on fixed Lichtheimia corymbifera spores; blank 'Hu 2nd Only' median 461.38, mean 517.80

Hu Isotype IgG (antibody)
Mean: FITC-A [1]: 1110
Median: FITC-A [1]: 843
Mean: FITC-A [2]: 1070
Median: FITC-A [2]: 833
Mean: FITC-A [3]: 2020
Median: FITC-A [3]: 1820
Mean: FITC-A [4]: 1210
Median: FITC-A [4]: 1010
Mean: FITC-A [5]: 2830
Median: FITC-A [5]: 1170
